Consider 2 molecules from PMC5888019 (Nucleic Acids Research, 2018).

Assay [1] concerns the target T1, Xrs2 (Flag-tagged, recombinant) (S. cerevisiae, UniProt P33301 1-854).
T1 sequence (looked up): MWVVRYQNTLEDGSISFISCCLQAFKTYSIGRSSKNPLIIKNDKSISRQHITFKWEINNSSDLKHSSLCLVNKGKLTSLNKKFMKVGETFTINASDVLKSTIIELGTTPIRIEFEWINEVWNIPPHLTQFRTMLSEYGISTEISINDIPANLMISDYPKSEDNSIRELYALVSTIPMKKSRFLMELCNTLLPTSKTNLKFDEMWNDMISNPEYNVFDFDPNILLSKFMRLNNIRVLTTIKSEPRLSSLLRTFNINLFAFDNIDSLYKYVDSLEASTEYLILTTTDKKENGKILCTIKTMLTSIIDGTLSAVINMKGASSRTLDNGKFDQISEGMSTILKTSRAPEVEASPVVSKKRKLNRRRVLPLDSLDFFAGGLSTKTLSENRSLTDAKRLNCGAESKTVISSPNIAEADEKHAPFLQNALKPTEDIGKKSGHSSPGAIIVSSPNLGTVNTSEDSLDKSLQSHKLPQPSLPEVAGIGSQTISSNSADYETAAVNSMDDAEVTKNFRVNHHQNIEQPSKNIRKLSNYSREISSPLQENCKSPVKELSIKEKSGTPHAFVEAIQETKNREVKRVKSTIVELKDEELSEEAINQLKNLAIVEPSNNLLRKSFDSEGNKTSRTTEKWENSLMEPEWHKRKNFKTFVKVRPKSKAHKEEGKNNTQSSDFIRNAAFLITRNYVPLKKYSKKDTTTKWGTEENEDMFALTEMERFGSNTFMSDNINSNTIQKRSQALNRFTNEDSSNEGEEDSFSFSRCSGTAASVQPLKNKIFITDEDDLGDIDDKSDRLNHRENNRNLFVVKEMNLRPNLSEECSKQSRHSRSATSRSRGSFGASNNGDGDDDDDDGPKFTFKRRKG
Description: pull-down.

Another assay concerns the target T2, Rad50 (S. cerevisiae, UniProt P12753 1-1312).
T2 sequence (looked up): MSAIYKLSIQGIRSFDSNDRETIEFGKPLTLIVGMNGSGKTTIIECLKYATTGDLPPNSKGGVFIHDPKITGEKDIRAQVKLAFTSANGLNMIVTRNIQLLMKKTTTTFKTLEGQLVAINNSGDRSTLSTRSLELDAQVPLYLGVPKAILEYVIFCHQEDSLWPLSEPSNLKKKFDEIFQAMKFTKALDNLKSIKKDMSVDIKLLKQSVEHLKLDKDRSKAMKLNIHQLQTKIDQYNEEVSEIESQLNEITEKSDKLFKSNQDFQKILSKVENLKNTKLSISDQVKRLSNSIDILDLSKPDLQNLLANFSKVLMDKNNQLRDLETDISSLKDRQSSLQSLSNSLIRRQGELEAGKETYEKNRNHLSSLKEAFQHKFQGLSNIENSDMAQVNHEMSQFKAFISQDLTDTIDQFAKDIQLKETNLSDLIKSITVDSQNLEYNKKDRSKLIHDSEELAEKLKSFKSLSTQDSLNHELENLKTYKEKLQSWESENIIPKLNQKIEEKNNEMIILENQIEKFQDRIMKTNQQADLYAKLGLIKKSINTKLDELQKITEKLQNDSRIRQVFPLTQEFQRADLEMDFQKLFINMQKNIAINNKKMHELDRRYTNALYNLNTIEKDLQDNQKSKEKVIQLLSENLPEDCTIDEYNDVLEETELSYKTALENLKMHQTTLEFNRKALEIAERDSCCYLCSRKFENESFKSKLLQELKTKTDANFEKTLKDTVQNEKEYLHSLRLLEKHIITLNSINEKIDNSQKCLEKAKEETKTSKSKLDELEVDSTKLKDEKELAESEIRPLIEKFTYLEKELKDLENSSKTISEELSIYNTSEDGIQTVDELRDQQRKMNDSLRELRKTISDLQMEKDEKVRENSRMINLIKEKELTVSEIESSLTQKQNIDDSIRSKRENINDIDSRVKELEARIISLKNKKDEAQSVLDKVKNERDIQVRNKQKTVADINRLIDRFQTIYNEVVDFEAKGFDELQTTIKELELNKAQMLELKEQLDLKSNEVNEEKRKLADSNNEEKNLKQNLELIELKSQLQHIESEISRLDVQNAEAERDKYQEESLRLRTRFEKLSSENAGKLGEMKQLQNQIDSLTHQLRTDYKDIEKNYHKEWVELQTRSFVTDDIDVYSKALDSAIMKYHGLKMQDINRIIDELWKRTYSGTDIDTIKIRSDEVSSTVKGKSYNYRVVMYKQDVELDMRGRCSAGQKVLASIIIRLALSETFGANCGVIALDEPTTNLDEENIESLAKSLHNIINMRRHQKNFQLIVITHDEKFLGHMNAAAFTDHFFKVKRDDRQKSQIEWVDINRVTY
Description: pull-down.

Numbering of substitutions follows the chain as printed. In names and notes the source's numbering stands.

B1: His-tagged Mre11 (wild type) (natural protein, S. cerevisiae, UniProt P32829 1-692, looked up)
chain: MDYPDPDTIRILITTDNHVGYNENDPITGDDSWKTFHEVMMLAKNNNVDMVVQSGDLFHVNKPSKKSLYQVLKTLRLCCMGDKPCELELLSDPSQVFHYDEFTNVNYEDPNFNISIPVFGISGNHDDASGDSLLCPMDILHATGLINHFGKVIESDKIKVVPLLFQKGSTKLALYGLAAVRDERLFRTFKDGGVTFEVPTMREGEWFNLMCVHQNHTGHTNTAFLPEQFLPDFLDMVIWGHEHECIPNLVHNPIKNFDVLQPGSSVATSLCEAEAQPKYVFILDIKYGEAPKMTPIPLETIRTFKMKSISLQDVPHLRPHDKDATSKYLIEQVEEMIRDANEETKQKLADDGEGDMVAELPKPLIRLRVDYSAPSNTQSPIDYQVENPRRFSNRFVGRVANGNNVVQFYKKRSPVTRSKKSGINGTSISDRDVEKLFSESGGELEVQTLVNDLLNKMQLSLLPEVGLNEAVKKFVDKDEKTALKEFISHEISNEVGILSTNEEFLRTDDAEEMKALIKQVKRANSVRPTPPKENDETNFAFNGNGLDSFRSSNREVRTGSPDITQSHVDNESRITHISQAESSKPTSKPKRVRTATKKKIPAFSDSTVISDAENELGDNNDAQDDVDIDENDIIMVSTDEEDASYGLLNGRKTKTKTRPAASTKTASRRGKGRASRTPKTDILGSLLAKKRK
As to B1, the binding result in assay [1] is recorded as “binds”.

B2: His-tagged Mre11-R522H (natural protein, S. cerevisiae, UniProt P32829 1-692, looked up)
chain: B1 chain with R522H
As for B2, the binding result (in the assay with Rad50; in assay [1]) was “binds” in each case.
